Test results: PMC8748767 (Nature Communications, 2022)

B1: Tyrosine hydroxylase deletion mutant lacking the N-terminal 43 residues (THNΔ43) (domain or fragment)
chain: not shown
notes: human tyrosine hydroxylase isoform TH1 lacking the N-terminal 43 residues; numbers count on: isoform TH1; source: recombinant, construct derived from pETMBP1a/TH (Genscript), expressed and purified essentially as TH; not shown: His, N-terminal, cleaved; MBP, N-terminal, cleaved
B2: Tyrosine hydroxylase deletion mutant with the first 35 residues deleted (THNΔ35) (domain or fragment)
chain: not shown
notes: human tyrosine hydroxylase isoform TH1 with the first 35 residues deleted; numbers count on: isoform TH1; also called THΔN35; THΔ35; source: recombinant, construct derived from pETMBP1a/TH (Genscript), expressed and purified essentially as TH; not shown: His, N-terminal, cleaved; MBP, N-terminal, cleaved
B3: Tyrosine hydroxylase deletion mutant with the entire N-terminal removed (THNΔ70) (domain or fragment)
chain: not shown
notes: human tyrosine hydroxylase isoform TH1 with the entire N-terminal tail (residues 1-70) removed; numbers count on: isoform TH1; also called THΔN70; source: recombinant, construct derived from pETMBP1a/TH (Genscript), expressed and purified essentially as TH; not shown: His, N-terminal, cleaved; MBP, N-terminal, cleaved

Target: the molecule itself
Test: SEC; preparative size-exclusion chromatography, HiLoad Superdex 200 prep grade (1.6 cm × 60 cm), 20 mM Na-Hepes pH 7, 200 mM NaCl

Stoichiometry N, 4:
B1, B2, B3
